Experiment: yeast display, Sf9 membrane polyspecificity reagent, FACS + sequencing; frameworks hold sequencing errors
How it was run: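 After 36–48 hours of galactose induction, yeast (Saccharomyces cerevisiae BJ5465) displaying a synthetic nanobody library were stained at 4 °C for 1 hour with 10% biotinylated, detergent-solubilized Sf9 membrane reagent. Streptavidin microbeads enriched the stained cells before FACS sorting into low and high (top ~1%) gates on anti-HA and streptavidin fluorescence. Each clone's polyreactivity label reflects its gate of origin.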

Row | Sequence | polyreactivity (PSR sort gate)
1 | QVQLVESGGGLVQAGGSLRLSCASSGRTFRKYAMGWYRQAPGKERELVAGIDTSGGSTFYADSVKGRFTISRDNAKNTVYLQMNSLKPEDTAVYYCNADRHRINRPVILYYWGQGTLVTVSS | low polyreactivity
2 | QVQLVESGGGLVQAGGSLRLSCASSGRTFRYNAMGWYIQAPGKESELVAAISRSGGRTYYADSVKGRFTISRDNAKNTVYLQMNSLKPEDTAVYYCAAYYYTAGDSSSRYDYWGQGTQVTVSS | high polyreactivity
3 | QVQLVESGGGLVQAGGSLRLSCASSGRTFTRYAMGWYRQAPGKERELVAAITGGGTTNYADSVKGRFTISRDNAKNTVYLQINSLKPEDTAVYYCAADEQDVFAPGLYFWGQGTQVTVSS | low polyreactivity
4 | QVQLVESGGGLVQAGGSLRLSCASSGRTFVWNAMGWYRQAPGKERELVAAIDWSGGSTYYADSVKGRFTISRDNAKNTVYLQMNSLKPEDTAVYYCAKEYWYRALWYNYWGQGTQVTVSS | high polyreactivity
5 | QVQLVESGGGLVQAGGSLRLSCASSGRTFWYYAMGWYRQPPGKERELVAAITSGGSTNYADSVKGRFTISRDNAKNTVYLQMNSLKPEDTAVYYCATDNPVFEYDYWGQGTQVTVSS | low polyreactivity
6 | QVQLVESGGGLVQAGGSLRLSCASSGRTFYPYAMGWYRQAPGKERDLDAAITWSGGSTYYADSVKGRFTISRDYAKITVYLQMNSLKPEDTAVYYCNATYEAYIYYEYDYWGQGTQVTVSS | low polyreactivity
7 | QVQLVESGGGLVQAGGSLRLSCASSGRTFYRYAMGWYRQAPGKERELVASITRRGGSTYYADSVKGRFTISRDNAKNTVYLQMNSLKPEDTAVYYCAKHSWPLDGGDYWGQGTQVTVSS | low polyreactivity
8 | QVQLVESGGGLVQAGGSLRLSCASSGRTIDGYAMGWYRQAPGKERELVATITWSGDSTYYADSVKGRFTISRDNAKNTVYLKMNSLKPEDTSVYYCAADSYYAYPYGYGYWGQGTQVTVSS | high polyreactivity
9 | QVQLVESGGGLVQAGGSLRLSCASSGRTLPYNAMGWYRQAPGKERELVAAISKRGSSTYYADSVKGRFTLSRDNAKNTVYLQMNSLKPEDTAVYYCAKGGSFYYWGQGTQVTVSS | high polyreactivity
10 | QVQLVESGGGLVQAGGSLRLSCASSGRTYNVMGWYRQATGKERELVAAITWRGGSTHYADSVKGRFTISRDNAKNTVYLQMNSLKAEDTAVYYCSADLLYKSTRVDYWGQGTQVTVSS | low polyreactivity
11 | QVQLVESGGGLVQAGGSLRLSCASSGSIFAGYAMGWYRQAPGKERELVATITSGGSTNYADSVKGRFTISRDNAKNTVYLQMNSLKPEDTAVYYCAADVEVSIPSSYTGGEYDYWGQGTQVTVSS | low polyreactivity
12 | QVQLVESGGGLVQAGGSLRLSCASSGSIFRRNVMGWYRQAPGKERELVASITGRGGSTYYADSVKGRFTISRDNAKNTVYLQMNSLKPEDTAVYYSNADSLRTYDWYTRTVGYGYWVQGTQVTVSS | high polyreactivity
13 | QVQLVESGGGLVQAGGSLRLSCASSGSIFSHYAMGWYRQAPGKERELVAAISRSGGSTYYADSVKGRFTISRDNAKNTVYLQMNSLKPEDTAVYYCAKEGDSGDWFDYWGQGTQVTVSS | low polyreactivity
14 | QVQLVESGGGLVQAGGSLRLSCASSGSIFTCYTMGWYRQAPGKEMELVAAISQTGGRTYYADSVKVRFTISRDNAKNTVYLQMNSLKAEDTAVYYCAARSKRLAHDYWGQGTQVTVSS | high polyreactivity
15 | QVQLVESGGGLVQAGGSLRLSCASSGSIFTINAMGWYRQAPGKERELVAAIPYSGGFTYYADSVKGRFTISRDNAKNTVYLQMNSLKPEDTAVYYCAAVRGYPSRITSYVYTYGYWGQGTQVTVSS | low polyreactivity
16 | QVQLVESGGGLVQAGGSLRLSCASSGSIFTRYAMGWYRQAPGKERELVAAISRRGGSTYYADSVKGRFTISRDNAKNTVYIQMNSLKPEDTAVYYCYPYYIASTFDYWGQGTQVTVSS | high polyreactivity
17 | QVQLVESGGGLVQAGGSLRLSCASSGSNFGYNAMGWYRQAPGKERELVAAILSSDSRTHYADSVKGRFTISRDNAKNTVYFQRNSLKPEDTAVYYCAAVKRRPGHYLYDYWGQGTQVSVSS | low polyreactivity

Source: the nanobody polyreactivity screen of Harvey et al. (2022)
